What was measured:
[1] = test system: TIP5/TAM-AT (Homo sapiens); assay: filter binding (Scatchard); details: 5 mM Mg2+, protein preincubated with 4x excess unlabeled MCS-RNA, EMSA: 12 mM Tris-HCl pH 8.0, 100 mM KCl, 5 mM MgCl2, 0.1 mM EDTA, 0.5 mM DTT, 3% glycerol, on ice, filter binding: 10 mM Tris-HCl pH 7.4, 100 mM KCl
TIP5/TAM [2] = molecular target: T1, TIP5/TAM (Homo sapiens, UniProt Q9UIF9 516-623); assay: NMR titration; EMSA: 12 mM Tris-HCl pH 8.0, 100 mM KCl, 5 mM MgCl2, 0.1 mM EDTA, 0.5 mM DTT, 3% glycerol, on ice; filter binding: 10 mM Tris-HCl pH 7.4, 100 mM KCl, 5 mM MgCl2, on ice; NMR: 20 mM Na phosphate pH 7.0, 50 mM NaCl, 1 mM DTT, 298 K (TAM-AT) or 293 K (TAM); details: protein: recombinant; tags: His6-GB1, TEV-removed; label: none; hairpin
T1 sequence: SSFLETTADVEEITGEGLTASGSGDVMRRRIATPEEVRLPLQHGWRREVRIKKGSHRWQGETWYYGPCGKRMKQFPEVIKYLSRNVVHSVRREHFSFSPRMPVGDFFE

TIP5/TAM [3] = molecular target: T1, TIP5/TAM; assay: NMR titration; negligible shift changes; EMSA: 12 mM Tris-HCl pH 8.0, 100 mM KCl, 5 mM MgCl2, 0.1 mM EDTA, 0.5 mM DTT, 3% glycerol, on ice; filter binding: 10 mM Tris-HCl pH 7.4, 100 mM KCl, 5 mM MgCl2, on ice; NMR: 20 mM Na phosphate pH 7.0, 50 mM NaCl, 1 mM DTT, 298 K (TAM-AT) or 293 K (TAM); details: protein: recombinant; tags: His6-GB1, TEV-removed; label: none; single-stranded

pRNA (mouse rDNA -204/-1)
Kd [1]: 5.5 nM

GGCGCAUCGGCGCC (structured_RNA) [Xist A-repeat RNA hairpin]
binding result (TIP5/TAM [2]): binds

UUUUUUUUUUUUU (ssRNA) [13-mer poly-U RNA]
binding result (TIP5/TAM [3]): no binding
